From PMC3950713
Numbering of substitutions follows the chain as printed.

Tests used:
Test in all cases: MST
HpDprA(5-217)H8E = molecular target: T1, HpDprA(5-217)H8E (Helicobacter pylori 26695, UniProt O25100 5-217, H8E)
T1 sequence: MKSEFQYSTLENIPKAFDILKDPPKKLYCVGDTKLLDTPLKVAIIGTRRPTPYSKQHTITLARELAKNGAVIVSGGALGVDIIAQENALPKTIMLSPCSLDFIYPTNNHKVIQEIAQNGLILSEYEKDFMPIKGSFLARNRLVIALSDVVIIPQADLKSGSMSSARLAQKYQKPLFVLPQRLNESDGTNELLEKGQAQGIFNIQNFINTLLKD

HpDprA(5-217)F140E = molecular target: T2, HpDprA(5-217)F140E (Helicobacter pylori 26695, UniProt O25100 5-217, F140E)
T2 sequence: T1 sequence with E4H, F136E

HpDprA(5-217)Y108E = molecular target: T3, HpDprA(5-217)Y108E (Helicobacter pylori 26695, UniProt O25100 5-217, Y108E)
T3 sequence: T1 sequence with E4H, Y104E

HpDprA(5-217)R52E = molecular target: T4, HpDprA(5-217)R52E (Helicobacter pylori 26695, UniProt O25100 5-217, R52E)
T4 sequence: T1 sequence with E4H, R48E

HpDprA(5-217)WT = molecular target: T5, HpDprA(5-217)WT (Helicobacter pylori 26695, UniProt O25100 5-217)
T5 sequence: T1 sequence with E4H

HpDprA(5-217)R52E/R143E = molecular target: T6, HpDprA(5-217)R52E/R143E (Helicobacter pylori 26695, UniProt O25100 5-217, R52E;R143E)
T6 sequence: T1 sequence with E4H, R48E, R139E

HpDprA(5-217)Y11E = molecular target: T7, HpDprA(5-217)Y11E (Helicobacter pylori 26695, UniProt O25100 5-217, Y11E)
T7 sequence: T1 sequence with E4H, Y7E

Question: What does the source list for TTTTTTTTTTTTTTTTTTTTTTTTTTTTTTTTTTT (ssDNA) [dT35]?
Answer: Kd (HpDprA(5-217)H8E): 66.3 ± 0.721 nM; Kd (HpDprA(5-217)F140E): 556 ± 28 nM; Kd (HpDprA(5-217)Y108E): 351 ± 6.88 nM; Kd (HpDprA(5-217)R52E): 9.95 ± 0.367 µM; Kd (HpDprA(5-217)WT): 31.5 ± 0.806 nM; binding result (HpDprA(5-217)R52E/R143E): no binding; Kd (HpDprA(5-217)Y11E): 55.9 ± 1.82 nM
